# Columns and labels:
# [1] = target: Dec (phage decoration protein) with a hexa-histidine tag at the C-terminus; test: cryo-EM structure
# [2] = target: Dec (phage decoration protein), tagged form not told for the experiment; test: cryo-EM structure
# Dec (phage decoration protein), tagged form not told for the experiment, sequence (Q8HAE6 whole entry): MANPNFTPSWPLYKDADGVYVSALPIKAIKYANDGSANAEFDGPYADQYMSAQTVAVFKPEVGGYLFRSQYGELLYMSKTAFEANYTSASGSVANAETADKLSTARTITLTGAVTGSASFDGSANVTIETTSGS
# Dec (phage decoration protein) with a hexa-histidine tag at the C-terminus, sequence (Q8HAE6 whole entry): as above
Substance,stoichiometry N [1],stoichiometry N [2]
Dec (phage decoration protein) with a hexa-histidine tag at the C-terminus (natural protein),3,
"Dec (phage decoration protein), tagged form not told for the experiment (natural protein)",,3

# — paper PMC3358469
